Experiment [1] deals with recombinant mouse FGFR2b (mouse) (UniProt P21803). Description: ELISA, antibody 1ug/mL.
In experiment [2] the target is FGFR1 (acro) (UniProt P11362). Briefly: ELISA, antibody 10 µg/mL.
Experiment [3] addresses FGFR2c (acro) (UniProt P21802). Description: ELISA, antibody 10 µg/mL.
Experiment [4] has as its target recombinant mouse FGFR2b (mouse) (UniProt P21803). Description: BLI, antibody on AHC2 sensor.
The target of experiment [5] is extracellular domain of FGFR2c protein (Example 1) (UniProt P21802). Briefly: phage ELISA.
The target in experiment [6] is extracellular domain of the FGFR2b protein (NP_075259.4) (UniProt P21802). Briefly: phage ELISA.
For experiment [7], the target named is T1, FGFR4 (acro) (UniProt P22455).
T1 sequence (looked up): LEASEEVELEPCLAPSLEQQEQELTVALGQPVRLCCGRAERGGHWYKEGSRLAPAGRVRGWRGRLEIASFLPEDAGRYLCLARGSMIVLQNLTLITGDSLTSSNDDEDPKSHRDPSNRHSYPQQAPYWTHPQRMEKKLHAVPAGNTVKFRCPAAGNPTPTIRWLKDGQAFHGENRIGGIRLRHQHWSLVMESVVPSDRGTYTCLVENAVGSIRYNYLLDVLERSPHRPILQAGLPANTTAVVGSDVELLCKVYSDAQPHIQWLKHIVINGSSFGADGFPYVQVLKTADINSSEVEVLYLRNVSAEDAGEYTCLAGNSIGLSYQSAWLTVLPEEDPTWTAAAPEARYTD
Description: ELISA, antibody 10 µg/mL.

We go through ten molecules from patent EP4714976A1.

extracellular domain of the FGFR2b protein (NP_075259.4), sequence (P21802 other isoform, or with tags, fused parts or gaps): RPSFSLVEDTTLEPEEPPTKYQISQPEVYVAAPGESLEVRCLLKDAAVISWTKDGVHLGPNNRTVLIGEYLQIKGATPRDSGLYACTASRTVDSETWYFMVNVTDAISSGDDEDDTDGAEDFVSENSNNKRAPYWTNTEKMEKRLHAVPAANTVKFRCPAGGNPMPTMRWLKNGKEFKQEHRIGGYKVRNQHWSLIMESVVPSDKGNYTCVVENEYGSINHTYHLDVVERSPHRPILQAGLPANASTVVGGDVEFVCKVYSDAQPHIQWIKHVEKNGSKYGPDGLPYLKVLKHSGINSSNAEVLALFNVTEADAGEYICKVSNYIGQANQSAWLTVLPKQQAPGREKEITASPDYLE
extracellular domain of FGFR2c protein (Example 1), sequence (P21802 22-377): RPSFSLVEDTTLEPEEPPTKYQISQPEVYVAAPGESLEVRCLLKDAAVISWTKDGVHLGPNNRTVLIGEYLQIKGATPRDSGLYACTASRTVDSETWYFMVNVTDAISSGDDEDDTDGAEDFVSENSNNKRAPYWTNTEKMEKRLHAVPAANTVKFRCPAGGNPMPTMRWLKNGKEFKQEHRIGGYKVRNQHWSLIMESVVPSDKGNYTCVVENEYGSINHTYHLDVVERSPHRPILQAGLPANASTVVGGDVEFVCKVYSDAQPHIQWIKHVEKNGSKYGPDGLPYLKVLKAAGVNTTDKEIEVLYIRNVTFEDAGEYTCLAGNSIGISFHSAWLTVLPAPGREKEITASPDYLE
FGFR2c (acro), sequence (P21802 22-377): as above
FGFR1 (acro), sequence (P11362 22-376): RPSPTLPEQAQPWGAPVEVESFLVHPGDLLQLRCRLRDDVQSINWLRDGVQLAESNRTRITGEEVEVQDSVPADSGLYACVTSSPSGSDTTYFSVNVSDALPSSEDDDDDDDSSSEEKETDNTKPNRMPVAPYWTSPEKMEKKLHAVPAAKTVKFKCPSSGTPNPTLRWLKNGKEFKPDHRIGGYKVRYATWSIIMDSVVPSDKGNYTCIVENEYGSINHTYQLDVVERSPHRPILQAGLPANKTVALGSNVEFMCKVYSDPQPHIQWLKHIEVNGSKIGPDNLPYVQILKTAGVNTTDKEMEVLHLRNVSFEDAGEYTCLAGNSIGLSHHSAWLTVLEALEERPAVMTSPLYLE
recombinant mouse FGFR2b (mouse), sequence (P21803 22-377): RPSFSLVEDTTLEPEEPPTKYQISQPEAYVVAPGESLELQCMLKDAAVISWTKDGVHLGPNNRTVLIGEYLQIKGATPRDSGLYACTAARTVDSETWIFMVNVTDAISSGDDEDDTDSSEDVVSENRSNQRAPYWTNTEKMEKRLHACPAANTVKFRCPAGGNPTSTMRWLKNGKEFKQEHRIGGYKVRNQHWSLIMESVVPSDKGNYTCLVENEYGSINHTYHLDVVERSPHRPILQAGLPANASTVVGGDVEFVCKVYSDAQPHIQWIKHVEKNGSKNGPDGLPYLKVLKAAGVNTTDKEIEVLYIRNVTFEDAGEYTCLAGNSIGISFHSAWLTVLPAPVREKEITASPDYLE

B1: 1A3 scFv-Fc (Fc fusion)
chain: QVQLQQPGAELVKPGASVKMSCKASGYTFASYNLHWVKQTPGQGLEWIGLIYPENGDTSYNQKFKGKATLTADKSSSTAYIQLSSLTSEDSAVYFCARGGFDYWGQGTTLTVSQGGGGSGGGGSGGGGSDIQMTQSPASLSASVGETVTITCGASENIYGALNWYQRKQGKSPQLLIYGATNLADGMSSRFSGSGSGRQYSLKISSLHPDDVATYYCQNVLSTPYTFGGGTKLEIKESKYGPPCPPCPAPEAAGGPSVFLFPPKPKDTLMISRTPEVTCVVVDVSQEDPEVQFNWYVDGVEVHNAKTKPREEQFNSTYRVVSVLTVLHQDWLNGKEYKCKVSNKGLPSSIEKTISKAKGQPREPQVYTLPPSQEEMTKNQVSLTCLVKGFYPSDIAVEWESNGQPENNYKTTPPVLDSDGSFFLYSKLTVDKSRWQEGNVFSCSVMHEALHNHYTQKSLSLSLG
Turning to B1, the values for the OD (450 nm) value in experiment [1], in experiment [2] and in experiment [3] were 1.81, 0.143 and 0.134, respectively. The Kd in experiment [4] stood at 99.8 nM. The koff in experiment [4] came out at 0.0054 s⁻¹. In addition, in experiment [4], the kon is 54200 M⁻¹ s⁻¹.

B2: 3A3 scFv-Fc (Fc fusion)
chain: QVQLQQSGAELVKPGASVKMSCKASGYTFTTYNIHWVRQTPGQGLEWIGLIYPDNGDTSYNQKFKAKATLTADKSSSTAYMHLSSLTSEDSAVYYCARGGFDYWGQGTTLTVSSGGGGSGGGGSGGGGSDIVMTQSHKFMSTSVGDRVSITCKASQDVNTDVSWYQQKPGQSPKLLIYSASYRYTGVPTRFTGSGSGTDFTFTISGVQAEDLADYYCQQHYNTPYTFGGGTRLEIKESKYGPPCPPCPAPEAAGGPSVFLFPPKPKDTLMISRTPEVTCVVVDVSQEDPEVQFNWYVDGVEVHNAKTKPREEQFNSTYRVVSVLTVLHQDWLNGKEYKCKVSNKGLPSSIEKTISKAKGQPREPQVYTLPPSQEEMTKNQVSLTCLVKGFYPSDIAVEWESNGQPENNYKTTPPVLDSDGSFFLYSKLTVDKSRWQEGNVFSCSVMHEALHNHYTQKSLSLSLG
On to B2, for which the OD (450 nm) value in experiment [1] was 2.63. Moreover, the OD (450 nm) value in experiment [2] is 0.097. In addition, in experiment [4], the dissociation constant (Kd) worked out at 39.6 nM, the koff came to 0.00122 s⁻¹ and the kon was 30800 M⁻¹ s⁻¹.

B3: 3H9 scFv displayed on phage (scFv)
scFv: EIQLQQSGAELVKPGASVKMSCKASGYTFSFYNMHWVKRTPGQGLEWIGLIYPDNGDTSYNQKFKGKATLTADTSSSTAYMQLSSLTSEDSAVYYCARGGLDYWGQGTTLTVSSGGGGSGGGGSGGGGSDIVLTQSPASLSVSVGETVTITCRASENIYSNLAWYQQKQGKSPQLLVYAATNLADGVPSRFSGSGSGTQYSLKINSLQSEDFGSYYCQHFWGTPYTFGGGTKLELK
For the molecule B3, the results for the OD (450 nm) value in experiment [5] and in experiment [6] were 0.073 and 2.22, respectively.

B4: 3A12 scFv displayed on phage (scFv)
scFv: EVQLQQSGAELVKPGASVKMSCKASGYTFSFYNVHWVRQTPGQGLEWIGLIYPDNGDTSYNQKFKAKATLTADKSSSAAYMQLSSLTSEDSAVYYCARGGFDYWGQGTSLTVSSGGGGSGGGGSGGGGSDIVMTQSHKFMSTSVGDRVNITCKASQDVSTAVAWYQQKPGQSPKLLIYSASYRYSGVPDRFTGSGSGTDFTFTISSVQAEDLAVYYCQQHYSTPYTFGGGTKLEMK
As for B4, the figures for the OD (450 nm) value in experiment [5] and in experiment [6] were 0.1 and 2.41, respectively.

B5: 3D6 scFv displayed on phage (scFv)
scFv: QVQLQQSGAELVKPGASVKMSCKASGYTFRYYNMHWVKRTPGQGLEWIGLIYPDNGDTSYNQKFKGKATLTADTSSSTAYMQLSSLTSEDSAVYYCARGGLDYWGQGTSLTVSSGGGGSGGGGSGGGGSDIQMTQSPASLSVSVGETVTITCRASENIYSNLAWYQQKQGKSPQLLVYNAKTLADGVPSRFSGSGSGTQYSLKINSLQPEDFGSYYCQHFWSTPFTFGSGTKLELK
In the case of B5, the OD (450 nm) value in experiment [5] is 0.037; in experiment [6], 1.92.

B6: 1C10 scFv displayed on phage (scFv)
scFv: QVQLQQSGAELVKPGASVKMSCKASGYTFRYYNMHWVKRTPGQGLEWIGLIYPDNGDTSYNQKFKGKATLTADTSSSTAYMQLSSLTSEDSAVYYCARGGLDYWGQGTSLTVSSGGGGSGGGGSGGGGSDIVMTQSPASLSASVGETVTITCRASGNIHNYLAWYQQKQGKSPQLLVYNAKTLADGVPSRFSGSGSGTQYSLKINSLQPEDFGSYYCQHFWSTPYTFGGGTKLEMK
For B6, the figures for the OD (450 nm) value in experiment [5] and in experiment [6] were 0.068 and 2.55, respectively.

B7: 1G6 scFv-Fc (Fc fusion)
chain: EIQLQQSGAELVKPGASVKMSCKASGYTFRYYNMHWVKRTPGQGLEWIGLIYPDNGDTSYNQKFKGKATLTADTSSSTAYMQLSSLTSEDSAVYYCARGGLDYWGQGTSLTVSSGGGGSGGGGSGGGGSNIVMTQSHKFMSTSVGDRVSITCKASQDVNTDVAWYQQKPGQSPKLLIYSASYRYTGVPTRFTGSGSGTDFTFTISGVQAEDLADYYCQQHYNTPYTFGGGTKLELKESKYGPPCPPCPAPEAAGGPSVFLFPPKPKDTLMISRTPEVTCVVVDVSQEDPEVQFNWYVDGVEVHNAKTKPREEQFNSTYRVVSVLTVLHQDWLNGKEYKCKVSNKGLPSSIEKTISKAKGQPREPQVYTLPPSQEEMTKNQVSLTCLVKGFYPSDIAVEWESNGQPENNYKTTPPVLDSDGSFFLYSKLTVDKSRWQEGNVFSCSVMHEALHNHYTQKSLSLSLG
Take B7: the OD (450 nm) value in experiment [1] came to 2.76; in experiment [2] it was 0.217; in experiment [3], 0.176; in experiment [7], 0.232. For the same molecule, the Kd in experiment [4] turned out to be 42.2 nM. Besides, the koff in experiment [4] was 0.00128 s⁻¹. For the same molecule, the kon in experiment [4] was found to be 30400 M⁻¹ s⁻¹.

B8: 3G10 scFv-Fc (Fc fusion)
chain: EVQLQQSGPELVKPGASVKMSCKASGYTFATYNMHWVKQTTGQGLEWIGAIYPDNGDTFYNRKFKDKATLTADKSSTTAYMQLSSLTSEDSAVYYCARGDFAYWGQGTLVTVSAGGGGSGGGGSGGGGSDVLMTQSPASLSASVGETVTITCGASENIYGALNWYQRKQGKSPQLLIYGATNLADGMSSRFSGSGSGRQYSLKISSLHPDDVATYYCQNVLSTPYTFGGGTKLEMKESKYGPPCPPCPAPEAAGGPSVFLFPPKPKDTLMISRTPEVTCVVVDVSQEDPEVQFNWYVDGVEVHNAKTKPREEQFNSTYRVVSVLTVLHQDWLNGKEYKCKVSNKGLPSSIEKTISKAKGQPREPQVYTLPPSQEEMTKNQVSLTCLVKGFYPSDIAVEWESNGQPENNYKTTPPVLDSDGSFFLYSKLTVDKSRWQEGNVFSCSVMHEALHNHYTQKSLSLSLG
Consider B8, for which the OD (450 nm) value in experiment [1] is 3. In experiment [2], this molecule gave an OD (450 nm) value of 0.083. In addition, in experiment [7], the OD (450 nm) value amounted to 0.175. Moreover, in experiment [4], the Kd was determined as 41.9 nM, the koff was found to be 0.00195 s⁻¹ and the kon stood at 46600 M⁻¹ s⁻¹.

B9: 3D7 scFv-Fc (Fc fusion)
chain: QVQLQQSGAELVKPGASVKMSCKASGYTFSFYNMHWVKRTPGRGLEWIGLIYPDNGDTSYNQKFKGKATLTADTSSSTAYMQLSSLTSEDSAVYYCARGGLDYWGQGTSLTVSSGGGGSGGGGSGGGGSEIVLTQSPASLAVSLGQRATISCKASQSVDYDGDSYMNWYQQKPGQPPKLLIYGISNRFSGVPDRFSGSGSGTDFTLKISTIKPEDLGMYYCLQGTHQPYTFGGGTKLEIKESKYGPPCPPCPAPEAAGGPSVFLFPPKPKDTLMISRTPEVTCVVVDVSQEDPEVQFNWYVDGVEVHNAKTKPREEQFNSTYRVVSVLTVLHQDWLNGKEYKCKVSNKGLPSSIEKTISKAKGQPREPQVYTLPPSQEEMTKNQVSLTCLVKGFYPSDIAVEWESNGQPENNYKTTPPVLDSDGSFFLYSKLTVDKSRWQEGNVFSCSVMHEALHNHYTQKSLSLSLG
Take B9: the OD (450 nm) value in experiment [1] was 2.48. For the same molecule, in experiment [2], the OD (450 nm) value is 0.192. Moreover, the OD (450 nm) value in experiment [7] was found to be 0.256. Moreover, in experiment [4], the Kd was 81.7 nM, the koff came out at 0.00238 s⁻¹ and the kon came to 29100 M⁻¹ s⁻¹.

B10: 3E3 scFv-Fc (Fc fusion)
chain: QVQLQQPGAVLVKPGASVRMSCKASGYTFPYYNVHWVKRTPGQGLEWIGLIYPDNGDTSYNQKFTGKATLTADTSSSTAYMQLSSLTSEDSAVYYCARGGLDYWGQGTTLTVSAGGGGSGGGGSGGGGSDVQITQSPASLSASVGETVTITCGASENIYGALNWYQRKQGKSPQLLIYGATNLADGMSSRFSGSGSGRQYSLKISSLHPDDVATYYCQNVLSTPYTFGGGTKLEIKESKYGPPCPPCPAPEAAGGPSVFLFPPKPKDTLMISRTPEVTCVVVDVSQEDPEVQFNWYVDGVEVHNAKTKPREEQFNSTYRVVSVLTVLHQDWLNGKEYKCKVSNKGLPSSIEKTISKAKGQPREPQVYTLPPSQEEMTKNQVSLTCLVKGFYPSDIAVEWESNGQPENNYKTTPPVLDSDGSFFLYSKLTVDKSRWQEGNVFSCSVMHEALHNHYTQKSLSLSLG
With B10, the OD (450 nm) value in experiment [1] worked out at 3.06; in experiment [2], 0.19; in experiment [3], 0.199; in experiment [7], 0.265. In addition, the Kd in experiment [4] was found to be 52.7 nM. In addition, the koff in experiment [4] was found to be 0.00214 s⁻¹. The kon in experiment [4] stood at 40500 M⁻¹ s⁻¹.
